33 sequences from the supplement of paper PMC9170038 can be followed below.

This series relates to MS2 coat protein. As to the kind of experiment: apparent KD of MS2 coat protein; designed switch direction (-1 OFF switch, 1 ON switch): -1; higher = weaker reporter binding. In a few lines: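 An oligonucleotide input, 200 uM small-molecule ligand, or no input was present during titration of SNAP-549-labelled MS2 coat protein, which was doubled from 0.7 or 1.5 nM to 3 µM. Designed RNA switches had been transcribed on Illumina chips by stalled E. coli RNA polymerase. Apparent KD per design is the median over clusters of curves fitted to normalised cluster fluorescence.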

[1] abbreviates: input ligand: microRNA oligo, concentration not stated.
Where [2] appears, read: Eterna round: R95, input ligand: FMN 200 uM.
The mark [3] stands for this setting: Eterna round: R95, input ligand: microRNA oligo, concentration not stated.
[4] abbreviates: Eterna round: R95, input ligand: none.

For “AUGUGCACGCUGCGGUCCUACAUGAGGAUCACCCAUGUGGUCUGGUGGCGUGGGUCGCCGGACUUGGCUCGUCUUGA [salish99_S_TOV1_R5_029] (Eterna round: R97, puzzle: Sensor, turn-off variant 1)”, the “apparent KD of MS2 coat protein” value runs as follows: (input ligand: FMN 200 uM) 17.9 nM; (input ligand: none) 18.2 nM.

For “AUGUGUAUAGUGAGGAUAUUGCCCAGGAAAUAGGGCAAGAAGGCACAUGAGGAUCACCCAUGUGGAUGUUCUGA [Eternabot (L2) Solution 85] (Eterna round: R97, puzzle: Brourd's mod of Exclusion 4)”, the “apparent KD of MS2 coat protein” value came out at 412 nM (input ligand: FMN 200 uM) and 37.5 nM (input ligand: none).

In the case of “AUGUUAUUGGAAGGAUAUAGUUUACUAUUCUAACAUGAGGAUCACCCAUGUAACCUUAUGUGUAUCUAGAAGGUCCAUAACUUA (Eterna round: R96, puzzle: Exclusion NG 2)”, under setting [1], the “apparent KD of MS2 coat protein” value was 46.4 nM.

As for “AUGUUAUUGGAAGGAUAUGGUUUACUAUCCUAACAUGAGGAUCACCCAUGUAACCUUAUGUGUAUCCAGAAGGUCCAUAACUUA (Eterna round: R96, puzzle: Exclusion NG 2)”, the “apparent KD of MS2 coat protein” value (input ligand: FMN 200 uM) amounted to 51.9 nM, the “apparent KD of MS2 coat protein” value under setting [1] is 22.8 nM and the “apparent KD of MS2 coat protein” value (input ligand: none) turned out to be 32.2 nM.

In the case of “AUGUUGCGAGGAUAUAUAAGGGUAUAUUCUUAAGAUAUGGAACAUGAGGAUCACCCAUGUAGAAGGUGCAUAAC [JR_Ex2_Sub043] (Eterna round: R97, puzzle: Exclusion 2)”, the “apparent KD of MS2 coat protein” value came out at 79.1 nM (input ligand: FMN 200 uM) and 73 nM (input ligand: none).

For the sequence “AUUAAAAUAUAGGAUAUCGAAUUUAUUAUUUAACGAGAAGGAUGAACAUGAGGAUCACCCAUGUGGUAUCAUGG [Mat - Exclusion 6 - JL Mod - D35] (puzzle: Exclusion 6)”, the “apparent KD of MS2 coat protein” value was determined as 177 nM under setting [2], 156 nM under setting [3] and 189 nM under setting [4].

As for “AUUAAACAUGUAGGAUAUGCGUGGCAAAGCUAUGCAGAAGGACAUGAGGAUCACCCAUGUAAAAGCGUCUGAGUACAGAUGCAA [Mat - Exclusion NG 1 - Mod of JL - D87] (Eterna round: R96, puzzle: Exclusion NG 1)”, the “apparent KD of MS2 coat protein” value is 374 nM (input ligand: FMN 200 uM), 61.5 nM under setting [1] and 62.9 nM (input ligand: none).

For the sequence “AUUAAACAUGUAGGAUAUGCGUGGCGAAGCUAUGCAGAAGGACAUGAGGAUCACCCAUGUUUUAGCGUCUGCGUACAGAUGCAA [JL ENG1 1.38] (Eterna round: R96, puzzle: Exclusion NG 1)”, the “apparent KD of MS2 coat protein” value (input ligand: FMN 200 uM) was 218 nM, the “apparent KD of MS2 coat protein” value under setting [1] was 17.8 nM and the “apparent KD of MS2 coat protein” value (input ligand: none) is 30.3 nM.

Regarding “AUUAAGCAGCAGGAUAUAAGUAUCUAAAGGUGGUUAGAAGGGCUGACAUGAGGAUCACCCAUGUGCUCUUCGUG [Reusat] (puzzle: Exclusion 6)”, the “apparent KD of MS2 coat protein” value under setting [3] was found to be 13.3 nM.

Regarding “AUUAAGCAGCAGGAUAUAAUUAUCUGAAGGUGGUUAGAAGGGCUGACAUGAGGAUCACCCAUGUGCUCUUCGUG [Diries] (puzzle: Exclusion 6)”, under setting [3], the “apparent KD of MS2 coat protein” value amounted to 14.7 nM.

With “AUUAAUCAGCAGGAUAUAAGUAUCUGAUGGUGGUUAGAAGGGCUGACAUGAGGAUCACCCAUGUGCUCUUCGUG [Beusbi] (puzzle: Exclusion 6)”, under setting [3], the “apparent KD of MS2 coat protein” value turned out to be 11.1 nM.

Consider “AUUAAUCAUGUAGGAUAUGCGUGGCGAAGCUAUGCAGAAGGACAUGAGGAUCACCCAUGUUCUAGCGUCUGCGUACAGAUGCUA [JL ENG1 1.37] (Eterna round: R96, puzzle: Exclusion NG 1)”, for which the “apparent KD of MS2 coat protein” value by setting is: (input ligand: FMN 200 uM) 349 nM; under setting [1], 29.5 nM; (input ligand: none) 37.6 nM.

As to “AUUAGUAAUAAGGAUAUCACUAGCCUCGGCUAGUGAGAAGGUAUUACAUGAGGAUCACCCAUGUGAUCAAUUAA [E6/3-A2] (Eterna round: R97, puzzle: Exclusion 6)”, the “apparent KD of MS2 coat protein” value reads like this: (input ligand: FMN 200 uM) 287 nM; (input ligand: none) 474 nM.

“AUUAUACAUGUAGGAUAUCUGCACGAUUAGUGCAGAGAAGGACAUGAGGAUCACCCAUGUAGAUCAAUAAUAAUUAAUUUAAUU [ENG1/6-B1] (Eterna round: R96, puzzle: Exclusion NG 1)”: the “apparent KD of MS2 coat protein” value (input ligand: FMN 200 uM) worked out at 500 nM, the “apparent KD of MS2 coat protein” value under setting [1] was found to be 122 nM and the “apparent KD of MS2 coat protein” value (input ligand: none) was 156 nM.

For “AUUAUAUAGAAAGGAUAUAGAUUAUUAUUUUAACAUGAGGAUCACCCAUGUAGCCUUAUGUAUAACUAGAAGGUUCAUUUAUUA [Title] (Eterna round: R96, puzzle: Exclusion NG 2)”, the “apparent KD of MS2 coat protein” value under setting [1] worked out at 57.9 nM.

Consider “AUUAUAUAGACAGGAUAUUGAUUAUUAUUUUAACAUGAGGAUCACCCAUGUAGCCUUAUGUAUAACAAGAAGGGUCAUUUAUUA [Title] (Eterna round: R96, puzzle: Exclusion NG 2)”, for which, under setting [1], the “apparent KD of MS2 coat protein” value worked out at 124 nM.

On to “AUUAUAUAGUAAGGAUAUUGAUUAUUAUUUUAACAUGAGGAUCACCCAUGUAGCCUUAUGUAUAACAAGAAGGUACAUUUAUUA [Title] (Eterna round: R96, puzzle: Exclusion NG 2)”, for which the “apparent KD of MS2 coat protein” value under setting [1] came out at 44.5 nM.

As to “AUUAUGUGAGGAUAUUAGUAGUAAAUGAAUAAAAUUAUUACUGAGAAGGCACAUGAGGAUCACCCAUGUUCCUU [Mat - Exclusion 4 - Eli Mod - D6] (Eterna round: R97, puzzle: Exclusion 4)”, the “apparent KD of MS2 coat protein” value (input ligand: FMN 200 uM) came to 155 nM and the “apparent KD of MS2 coat protein” value (input ligand: none) worked out at 18.1 nM.

As to “AUUAUUACAUAGGAUAUAAAAGAGCUCACUCAGUUAGAAGGAUGUACAUGAGGAUCACCCAUGUGAUUCUGGCU [Eternabot (L2) Solution 58] (Eterna round: R97, puzzle: Exclusion 6)”, the “apparent KD of MS2 coat protein” value reads like this: (input ligand: FMN 200 uM) 26.3 nM; (input ligand: none) 25.2 nM.

With “AUUCAUGCAGGAUAUACAUGAGGAUCACCCAUGUUAAUUUCUACAAGGCGGCAUCUAUGUAGAAGGGUAUGAAG [Eternabot (L2) Solution 33] (Eterna round: R97, puzzle: Exclusion 3)”, the “apparent KD of MS2 coat protein” value (input ligand: FMN 200 uM) stood at 35.5 nM and the “apparent KD of MS2 coat protein” value (input ligand: none) stood at 24.6 nM.

In the case of “AUUCCCGGUGUUAGGAUAUCCAACGCCCACGCGAUGGAGAAGGGACAUGAGGAUCACCCAUGUAGAGCUGCAUC [Aredan] (puzzle: Brourd's mod of Exclusion 4)”, the “apparent KD of MS2 coat protein” value under setting [3] was 11.7 nM.

“AUUCUCUCGGUGAGGAUAUGAGUAACGACGGCAGAUUAGAAGGUACAUGAGGAUCACCCAUGUGUGUUUGGGAU [Eternabot (L1) Solution 75] (Eterna round: R97, puzzle: Brourd's mod of Exclusion 4)”: the “apparent KD of MS2 coat protein” value was 41.7 nM (input ligand: FMN 200 uM) and 47.5 nM (input ligand: none).

Take “AUUGACUGAGGAUAUUGUGCUGCUGACAUGAGGAUCACCCAUGUAUGUUAACUCGGCCGUCGAGAAGGCAGAAAUG [BotMod 20 - Jieux - Exclusion 5] (Eterna round: R97, puzzle: Exclusion 5)”: the “apparent KD of MS2 coat protein” value is, setting by setting: (input ligand: FMN 200 uM) 22.6 nM; (input ligand: none) 28.2 nM.

For the sequence “AUUGAUAUUGAGGAUAUGCUUUUAUUUGUUCUUGCAGAAGGCGAUACAUGAGGAUCACCCAUGUUUAUGGAAGU [JR_E6_Sub089] (puzzle: Exclusion 6)”, the “apparent KD of MS2 coat protein” value under setting [3] was determined as 38.9 nM.

“AUUGAUGUUGAGGAUAUGCUUAUAUUUAUACUUGCAGAAGGCGAUACAUGAGGAUCACCCAUGUUCAUGGAAGU [JR_E6_Sub092] (puzzle: Exclusion 6)”: the “apparent KD of MS2 coat protein” value under setting [3] came out at 26.2 nM.

Consider “AUUGAUGUUGAGGAUAUGCUUUUAUUUAUAAUAGCAGAAGGCGAUACAUGAGGAUCACCCAUGUUCAUGGUUUU [JR_E6_Sub096] (puzzle: Exclusion 6)”, for which, under setting [3], the “apparent KD of MS2 coat protein” value is 24.5 nM.

For the sequence “AUUGUAGUUGUGAGGAUAUCGUUGAUUUUUUGAAACGAGAAGGCACAUGAGGAUCACCCAUGUUAGUUGUUGGU [JR_BMOE4_Sub056] (puzzle: Brourd's mod of Exclusion 4)”, the “apparent KD of MS2 coat protein” value under setting [3] came to 65.4 nM.

Take “AUUGUAUAGGAAGGAUAUAGAAUAUUAUUUUAACAUGAGGAUCACCCAUGUAACCUUAUGUGUAGCUAGAAGGUCCAUUUGUUA [Title] (Eterna round: R96, puzzle: Exclusion NG 2)”: the “apparent KD of MS2 coat protein” value under setting [1] stood at 228 nM.

As for “AUUGUAUAGGAAGGAUAUAGAAUAUUAUUUUAACAUGAGGAUCACCCAUGUAACCUUAUGUGUAGCUAGAAGGUCCGUUUAUUA [Title] (Eterna round: R96, puzzle: Exclusion NG 2)”, under setting [1], the “apparent KD of MS2 coat protein” value was found to be 96.5 nM.

“AUUGUUUAUGUAGGAUAUGCCUGGCGUGCCUUUGCAGAAGGACAUGAGGAUCACCCAUGUAACAUGAGGCUCACCCUUGUCGCA [salish99_ExNG1_r04_114] (Eterna round: R96, puzzle: Exclusion NG 1)”: the “apparent KD of MS2 coat protein” value (input ligand: FMN 200 uM) was found to be 147 nM, the “apparent KD of MS2 coat protein” value under setting [1] was 81.4 nM and the “apparent KD of MS2 coat protein” value (input ligand: none) worked out at 95.5 nM.

With “AUUGUUUGAUACCUCUAAUACAUGAGGAUCACCCAUGUUAUCGAGGAUAUGCAUUAGAGUGGAUAGCAGAAGGCGAAGUAAUUG [JR_ExcNG3_Sub029] (Eterna round: R96, puzzle: Exclusion NG 3)”, the “apparent KD of MS2 coat protein” value (input ligand: FMN 200 uM) was 13.7 nM, the “apparent KD of MS2 coat protein” value under setting [1] came to 13.4 nM and the “apparent KD of MS2 coat protein” value (input ligand: none) is 16.5 nM.

With “AUUGUUUUAGGAUAUACAUGAGGAUCACCCAUGUGUGCGAUGCGGAUCGGGAAAGCCUGUAGAAGGAAGACAUG [Eternabot (L1) Solution 74] (Eterna round: R97, puzzle: Exclusion 3)”, the “apparent KD of MS2 coat protein” value came out at 33.4 nM (input ligand: FMN 200 uM) and 30.8 nM (input ligand: none).

Take “AUUUAAACAUAGGAUAUCGAAUUUAUUAUUUAACGAGAAGGAUGAACAUGAGGAUCACCCAUGUGGUAUCAUGG [Mat - Exclusion 6 - JL Mod - D25] (puzzle: Exclusion 6)”: the “apparent KD of MS2 coat protein” value was found to be 693 nM under setting [2], 815 nM under setting [3] and 260 nM under setting [4].
